“Also recorded” adds a separate entry of the source.
What was measured:
[1] = system: PC3-ML cells; test: MTT cell proliferation assay in PC3-ML cells; format: cell-based; details: PC3-ML cells treated with MDA-7/IL-24 protein
Procedure: Purification of Recombinant His-MDA-7 Protein: IM-PHFA cells were infected with Ad.5-His-mda-7 using a published protocol (24). Cell supernatant was mixed with Ni-NTA (a nickel-nitrilotriacetic) acid slurry to allow binding of MDA-7/IL-24 to the Ni-NTA beads. Twenty-four hours after incubation, the Ni-NTA beads were collected, washed, and the purified MDA-7/IL-24 protein was eluted in imidazole buffer. The protein was validated by western blotting using anti-MDA-7 antibody (Genhunter Corporation, Nashville, Tenn., USA). Biological activity was checked in PC3-ML cells by MTT assay (25).
MTT Cell Proliferation and Clonal Assays: Cell proliferation assays were done as described previously (25). Briefly, 2,000 cells were seeded in each well of a 96-well plate and allowed to attach overnight. Cells were treated with complete media in the presence or absence of different concentrations of MDA-7/IL-24 protein. At appropriate time points, cells were further incubated with MTT (3-(4, 5-di methyl thiazol-2-yl)-2, 5 diphenyl tetrazolium bromide) reagents. Finally, DMSO was applied to dissolve the blue salt and the OD was measured at 560 nm (25). For determining long-term effects, colony formation (cloning) assays were performed as described earlier (26). Briefly, 200 cells were plated and allowed to grow in the presence or absence of MDA-7/IL-24 for an additional 15 days. […]

[2] = system: PC cells; test: Colony formation (clonal) assay in PC cell lines; format: cell-based; details: 200 cells plated, colonies counted 2 weeks after treatment
Procedure: (§1) MTT Cell Proliferation and Clonal Assays: Cell proliferation assays were done as described previously (25). Briefly, 2,000 cells were seeded in each well of a 96-well plate and allowed to attach overnight. Cells were treated with complete media in the presence or absence of different concentrations of MDA-7/IL-24 protein. At appropriate time points, cells were further incubated with MTT (3-(4, 5-di methyl thiazol-2-yl)-2, 5 diphenyl tetrazolium bromide) reagents. Finally, DMSO was applied to dissolve the blue salt and the OD was measured at 560 nm (25). For determining long-term effects, colony formation (cloning) assays were performed as described earlier (26). Briefly, 200 cells were plated and allowed to grow in the presence or absence of MDA-7/IL-24 for an additional 15 days. Culture media was replaced with fresh media containing MDA-7/IL-24 protein once a week, two times in total.

[3] = system: immortalized normal primary human prostate epithelial cells (RWPE-1); test: Colony formation (clonal) assay in RWPE-1 cells; format: cell-based; details: 200 cells plated, colonies counted 2 weeks after treatment
Procedure: as §1

[4] = system: primary bone marrow cells; test: Live-dead cell assay on primary bone marrow cells; format: cell-based, mouse; details: treated in vitro at different doses
Procedure: Live-Dead Cell Assay: Live and dead cells were observed by confocal laser microscopy (Zeiss, Germany) after staining with live/dead staining reagent (Invitrogen, Carlsbad, Calif., USA) as per the manufacturer's instructions. The images were analyzed by Zeiss software.
BLI imaging followed development of metastatic lesions in bone.

[5] = system: TRAP, Cathepsin K (CTSK), and Calcitonin Receptor (CTR) genes; test: RQ-PCR of osteoclastic genes in RAW 264.7 cells; format: cell-based, mouse; details: 5 days, MDA-7/IL-24 protein 10 μg/mL, RANKL 100 ng/mL
Procedure: Real Time q-PCR: Total RNA was isolated from cells with the RNA isolation kit from Qiagen (Valencia, Calif., USA). RQ-PCR was performed using TaqMan probes and master mix from Applied Biosystems (Foster City, Calif., USA). Data were analyzed using the graph pad prism software.
To investigate the effect of MDA-7/IL-24 on osteoclast differentiation, bone marrow cells from athymic nude mice were isolated and induced to differentiate with RANKL in the presence or absence of MDA-7/IL-24 protein. Five days after induction with RANKL, osteoclast differentiation was measured by counting multinucleated cells. Cells positively stained for TRAP and multinucleated cells were quantified under a light microscope (FIG. 9A). […] To provide molecular insights into this inhibitory effect, we used a mouse macrophage cell line RAW 264.7, which can be induced to differentiate into osteoclasts when incubated with RANKL (32). Using RAW 264.7 cells, different genetic markers associated with osteoclastic differentiation were monitored (33). RAW 264.7 cells were treated with RANKL or MDA-7/IL-24 alone and in combination. RNA was isolated after 5 days of treatment and real time PCR quantified expression of TRAP, Cathepsin K (CTSK), and Calcitonin Receptor (CTR) genes. RANKL induced the expression of TRAP, CTSK and CTR gene expression. […]

[6] = system: bone marrow cells; test: Osteoclast differentiation of bone marrow from animals injected with elevated Akt-stable expression cells; format: in vivo, mice; details: MDA-7/IL-24 protein 5 mg/kg, 6 doses; differentiation induced ex vivo
Procedure: (§2) Osteoclast Formation Assays: Bone marrow cells were induced for osteoclast differentiation using previously described protocols (28). Briefly, bone marrow cells were cultured in minimal essential medium (α-MEM) with 10% fetal bovine serum with MCSF (10 ng/ml) for 24 hrs. They were subsequently treated with RANKL (100 ng/ml) for 5 days. Cultured cells were fixed and stained for TRAP (Tartarate-resistant acid phosphatase). TRAP staining was performed following the specific protocol provided with the kit (Sigma-Aldrich, Inc. St. Louis, Mo., USA). Multinucleated cells, considered as differentiated osteoclasts, were counted manually under bright field microscope. TRACP enzymatic assays were done as per the manufacturer's instructions (R & D, Minneapolis, Minn., USA).
To evaluate the role of Akt in vivo, metastatic PC3-ML cells and PC3-ML cells over expressing constitutively active Akt (PC3-MI/**) (FIG. 5A) carrying firefly luciferase were injected into male athymic nude mice through the intracardiac route. Clone 1 was used for the in vivo studies, which was validated for expression of Akt downstream pathway gene expression by western blotting (FIG. 14). Proliferation, invasion, and migration of the tumor cells were monitored by IVIS® imaging. […] The Akt overexpressing PC3-ML cells were more metastatic than the control PC3-ML cells. […]

[7] = system: bone marrow cells; test: In vitro RANKL-induced osteoclast differentiation of primary bone marrow cells; format: cell-based, athymic nude mice; details: RANKL induction 5 days, 10 μg/mL MDA-7/IL-24 protein
Procedure: as §2
To investigate the effect of MDA-7/IL-24 on osteoclast differentiation, bone marrow cells from athymic nude mice were isolated and induced to differentiate with RANKL in the presence or absence of MDA-7/IL-24 protein. Five days after induction with RANKL, osteoclast differentiation was measured by counting multinucleated cells. Cells positively stained for TRAP and multinucleated cells were quantified under a light microscope (FIG. 9A). […] To provide molecular insights into this inhibitory effect, we used a mouse macrophage cell line RAW 264.7, which can be induced to differentiate into osteoclasts when incubated with RANKL (32). Using RAW 264.7 cells, different genetic markers associated with osteoclastic differentiation were monitored (33). RAW 264.7 cells were treated with RANKL or MDA-7/IL-24 alone and in combination. RNA was isolated after 5 days of treatment and real time PCR quantified expression of TRAP, Cathepsin K (CTSK), and Calcitonin Receptor (CTR) genes. RANKL induced the expression of TRAP, CTSK and CTR gene expression. […] MTT assays were performed to determine if MDA-7/IL-24 caused any growth suppression in this cell line. Proliferation of RAW 264.7 was not affected by MDA-7/IL-24, further illustrating the tumor-specificity of this cytokine (FIG. 10B). DU-145 (PC) cells were used as a positive control (FIG. 10C).

B1: MDA-7/IL-24 protein: Recombinant His-tagged MDA-7/IL-24 protein purified on Ni-NTA from supernatant of IM-PHFA cells infected with Ad.5-His-mda-7 (protein)
chain: QEFHFGPCQVKGVVPQKLWEAFWAVKDTMQAQDNITSARLLQQEVLQNVSDAESCYLVHTLLEFYLKTVFKNYHNRTVEVRTLKSFSTLANNFVLIVSQLQPSQENEMFSIRDSAHRRFLLFRRAFKQLDVEAALTKALGEVDILLTWMQKFYKL
[1]
  Cell proliferation (MTT assay): significant inhibition in cell proliferation
[1]; listed as MDA-7/IL-24
  Cell proliferation (MTT assay): significantly impaired
[2]
  proliferation of PC cells (colony formation): significantly reduced the proliferation of PC cells
[3]
  proliferation capacity of RWPE-1 (colony formation): without affecting the proliferation capacity
[4]; listed as His-MDA-7
  toxicity in primary bone marrow cells: No apparent toxicity
[4]; listed as MDA-7/IL-24
  toxicity in primary bone marrow cells: no effect
[5]
  RANKL-induced TRAP, CTSK and CTR gene expression: attenuated RANKL-induced regulation of these genes
[6]
  osteoclastic activity of bone marrow from animals with Akt overexpressing cells: decreased
[7]; listed as His-MDA-7
  number of osteoclasts (osteoclast differentiation): decreased significantly
  osteoclast activity (TRACP enzymatic activity): significantly less
[7]; listed as MDA-7/IL-24
  number of osteoclasts (osteoclast differentiation): significantly reduced; also recorded: reduced osteoclast differentiation
  osteoclast activity (TRACP enzymatic activity): significantly reduced

From US20210187071A1, “COMPOSITIONS COMPRISING MDA-7/IL-24 PROTEIN AND METHODS OF USE” (VIRGINIA COMMONWEALTH UNIVERSITY, priority 2017, published 2021)
